# B1: loxP site 2 of donor pD3 (LoxP2-up/down) (dsDNA)
# DNA 1: AATTCGGATCCATAACTTCGTATAGCATACATTATACGAAGTTATGCGGCC
# DNA 2: AGCGGCCGCATAACTTCGTATAATGTATGCTATACGAAGTTATGGATCCG
# B2: loxP site 1 of donor pD3 (LoxP1-up/down) (dsDNA)
# DNA 1: CGCGGCCGCATAACTTCGTATAGCATACATTATACGAAGTTATCAGTCGACG
# DNA 2: AATTCGTCGACTGATAACTTCGTATAATGTATGCTATACGAAGTTATGCGGCCGCGACGT
# B3: loxP site of acceptor pCMVmycloxP (LoxPMyc-up/down) (dsDNA)
# DNA 1: AGATAACTTCGTATAGCATACATTATACGAAGTTATA
# DNA 2: GATCTATAACTTCGTATAATGTATGCTATACGAAGTTATCTCCA
# Legend:
# Cre recombinase [1] = target: T1, Cre recombinase (UniProt P06956 P06956:1-343); assay: same reaction, second donor loxP site; details: chain copies: 4 per synapse (inferred); EcoRI and SapI overhangs before cloning; assayed within plasmid
# T1 sequence (P06956 whole entry, one chain of several): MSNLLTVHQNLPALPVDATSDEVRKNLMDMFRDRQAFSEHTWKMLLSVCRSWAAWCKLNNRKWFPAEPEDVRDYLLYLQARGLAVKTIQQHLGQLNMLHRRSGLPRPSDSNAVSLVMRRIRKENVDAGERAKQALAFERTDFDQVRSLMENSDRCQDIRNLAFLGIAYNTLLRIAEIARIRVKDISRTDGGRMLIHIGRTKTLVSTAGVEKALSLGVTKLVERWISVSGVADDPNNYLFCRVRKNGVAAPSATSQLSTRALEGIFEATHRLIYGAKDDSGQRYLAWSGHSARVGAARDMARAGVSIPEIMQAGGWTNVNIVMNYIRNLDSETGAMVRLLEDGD
# Method: (§1) To achieve generation of the expression vector from the donor and acceptor, the following were mixed together on ice in a standard eppendorf microcentrifuge tube: 0.5 µg pCMVmycloxP (representing the Acceptor vector); 0.5 µg pD3 (representing the Donor vector); 2 µl 10×Cre reaction buffer (10×Cre reaction buffer contains: 500 mM Tris-HCl (pH 7.5) and 300 mM NaCl); 10 mM MgCl_2, 1 µl 20×BSA (20×BSA contains 2 mg/ml BSA (NEB)); 25 Units Cre recombinase (Novagen); H_2O to 20 µl total.
# (§2) Once the reagents were mixed, the reaction was incubated for 15 mins at 37° C. Following the reaction, the mixture was heated to 65° C. for 10 mins to inactivate the Cre enzyme. Finally, an aliquot of the reaction mix was transformed to E. coli using standard methods (e.g., electroporation), and the transformed bacteria selected on LB plates containing 60 µg/ml Chloramphenicol.
# Cre recombinase [2] = target: T1, Cre recombinase; assay: in vitro recombination pD3 x pCMVmycloxP, 50 mM Tris-HCl pH 7.5, 30 mM NaCl, 10 mM MgCl2, BSA, 37 C 15 min; chloramphenicol selection in E. coli; details: chain copies: 4 per synapse (inferred); AatII and EcoRI overhangs before cloning; assayed within plasmid
# Method: as §1, §2
# Cre recombinase [3] = target: T1, Cre recombinase; assay: acceptor loxP site; same buffer, 37 C 15 min; loxP of this acceptor PCR-transferred to 10 acceptors, 27 of 30 clones correct with pDNR-luc; details: chain copies: 4 per synapse (inferred); SfiI and BglII overhangs before cloning; assayed within plasmid
binder,measurement,setting,value
B1,binding result,Cre recombinase [1],binds
B2,binding result,Cre recombinase [2],binds
B3,binding result,Cre recombinase [3],binds

# Reference: patent US6410317, “Recombinase-based methods for producing expression vectors and compositions for use in practicing the same” (Clontech Laboratories, Inc.)
